Common to all, as to type: biochemical
Experiment [1] in a line: Luminescence activity of KAZ mutants (pCold II, E. coli) in supernatant and precipitate of crude enzyme solution. As to conditions: for Relative Luminescence Activity (Imax) Precipitate / Relative Luminescence Activity (Imax) Supernatant / Luminescence activity in the supernatants, fold higher as compared to the wild KAZ: pCold II; for Relative Luminescence Activity (Imax) Precipitate / Relative Luminescence Activity (Imax) Supernatant: E. coli BL21, 60 seconds; for Relative Luminescence Activity (Imax) Precipitate: 5 μL precipitate; for Relative Luminescence Activity (Imax) Supernatant: 5 μL supernatant; for Luminescence activity in the supernatants, fold higher as compared to the wild KAZ: supernatant, coelenterazine (Table 8).

The nature of experiment [2]: Substrate specificities of KAZ mutants (ZZ-fused, crude enzyme), CTZ. As to conditions: for Relative Luminescence Activity CTZ Int. / Relative Luminescence Activity CTZ Imax: ZZ-fused crude enzyme, 1 μg substrate; for Relative Luminescence Activity CTZ Int.: integrated for 60 seconds; for Relative Luminescence Activity CTZ Imax: maximum intensity of luminescence; for Substrate specificity: coelenterazine versus its analogues. The protocol:
(§1) The coelenterazine analogues used for substrate specificity studies were synthesized by the methods described in publications. Specifically, bis-coelenterazine was synthesized by the method described in Nakamura et al. (1997) Tetrahedron Lett. 38: 6405-6406; furimazine by the method described in Hall et al. (2012) ACS Chem. Biol. […]; and, 6h-coelenterazine, f-coelenterazine and 6h-f-coelenterazine by the methods described in Inouye et al (2013) Biochem. Biophys. Res. Commun. 437: 23-28.
(§2) DTT was added to the crude enzyme solutions obtained in EXAMPLE 17 at a final concentration of 1 mM and the mixtures were allowed to stand in an ice water for more than 5 hours in the same manner as Example 8. A luminescence reaction was started by the addition of 1 μL each of the crude enzyme solutions to 100 μL of TE containing 1 μg of coelenterazine (manufactured by JNC Corp.) or its analogues. The luminescence activities were determined using a luminometer (manufactured by Atto Inc.: AB2200) for 60 seconds, and the maximum intensity of luminescence (Imax) was shown as relative luminescence activity.

A short description of experiment [3]: Substrate specificities of KAZ mutants (ZZ-fused, crude enzyme), 6h-CTZ. Conditions: for Relative Luminescence Activity 6h-CTZ Int. / Relative Luminescence Activity 6h-CTZ Imax: 1 μg substrate; for Relative Luminescence Activity 6h-CTZ Int.: integrated for 60 seconds; for Relative Luminescence Activity 6h-CTZ Imax: maximum intensity of luminescence. The protocol:
as §1, §2

Numbering of substitutions follows the chain as printed. In names and notes the source's numbering stands.

B1: KAZ-A54I: KAZ with single amino acid substitution A54I, SEQ ID NO: 6 (protein)
chain: FTLADFVGDWQQTAGYNQDQVLEQGGLSSLFQALGVSVTPIQKVVLSGENGLKIDIHVIIPYEGLSGFQMGLIEMIFKVVYPVDDHHFKIILHYGTLVIDGVTPNMIDYFGRPYPGIAVFDGKQITVTGTLWNGNKIYDERLINPDGSLLFRVTINGVTGWRLCENILA
In the case of B1, in experiment [1] (Table 3, 0.5 μg coelenterazine), the “Relative Luminescence Activity (Imax) Precipitate” value was found to be 13 and the “Relative Luminescence Activity (Imax) Supernatant” value was 150. In experiment [1] (Table 8, coelenterazine), the “Relative Luminescence Activity (Imax) Precipitate” value is on record as 13 and the “Relative Luminescence Activity (Imax) Supernatant” value is recorded as 151. Moreover, the “Luminescence activity relative to that of dnKAZ” value in experiment [1] (pCold II crude enzyme solution, coelenterazine) is on record as “approximately 1/12”. For the same molecule, in experiment [2], the “Relative Luminescence Activity CTZ Int.” value worked out at 9.0 and the “Relative Luminescence Activity CTZ Imax” value turned out to be 8.4. Moreover, in experiment [3], the “Relative Luminescence Activity 6h-CTZ Int.” value stood at 2.1 and the “Relative Luminescence Activity 6h-CTZ Imax” value is 1.6.

B2: KAZ-V44I-A54I: KAZ mutant with two amino acid substitutions V44I and A54I, SEQ ID NO: 10 (protein)
chain: B1 chain with V44I
In the case of B2, in experiment [1] (Table 8, coelenterazine), the “Relative Luminescence Activity (Imax) Precipitate” value is 5.8 and the “Relative Luminescence Activity (Imax) Supernatant” value is recorded as 295. Moreover, the “Luminescence activity in the supernatants, fold higher as compared to the wild KAZ” value in experiment [1] is recorded as 295 fold. In experiment [2], the “Relative Luminescence Activity CTZ Int.” value is listed as 12.7, the “Relative Luminescence Activity CTZ Imax” value was determined as 15.3 and the “Substrate specificity” value is on record as “high substrate specificity for coelenterazine”. Besides, in experiment [3], the “Relative Luminescence Activity 6h-CTZ Int.” value is recorded as 5.6 and the “Relative Luminescence Activity 6h-CTZ Imax” value is listed as 4.5.

B3: KAZ-V44I-A54I-Y138I: KAZ mutant with three amino acid substitutions V44I, A54I and Y138I, SEQ ID NO: 16 (protein)
chain: B1 chain with V44I, Y138I
Regarding B3, in experiment [1] (Table 8, coelenterazine), the “Relative Luminescence Activity (Imax) Precipitate” value turned out to be 40 and the “Relative Luminescence Activity (Imax) Supernatant” value is listed as 1,730. Also, in experiment [2], the “Relative Luminescence Activity CTZ Int.” value came to 66.7, the “Relative Luminescence Activity CTZ Imax” value is 66.7 and the “Substrate specificity” value is “high substrate specificity for coelenterazine”. For the same molecule, in experiment [3], the “Luminescence activity compared with dnKAZ with 6h-coelenterazine” value was “higher luminescence activity than dnKAZ”, the “Relative Luminescence Activity 6h-CTZ Int.” value amounted to 11.1 and the “Relative Luminescence Activity 6h-CTZ Imax” value turned out to be 12.9.

B4: KAZ-Y138I: KAZ with single amino acid substitution Y138I, SEQ ID NO: 8 (protein)
chain: B1 chain with I54A, Y138I
For the molecule B4, in experiment [1] (Table 3, 0.5 μg coelenterazine), the “Relative Luminescence Activity (Imax) Precipitate” value came out at 1.4 and the “Relative Luminescence Activity (Imax) Supernatant” value was determined as 32. In experiment [1] (Table 8, coelenterazine), the “Relative Luminescence Activity (Imax) Precipitate” value is listed as 1.4 and the “Relative Luminescence Activity (Imax) Supernatant” value was 32. In experiment [2], the “Relative Luminescence Activity CTZ Int.” value is 5.9 and the “Relative Luminescence Activity CTZ Imax” value amounted to 7.5. In addition, in experiment [3], the “Relative Luminescence Activity 6h-CTZ Int.” value turned out to be 0.3 and the “Relative Luminescence Activity 6h-CTZ Imax” value was determined as 0.2.

B5: KAZ: wild 19 kDa catalytic protein of Oplophorus luciferase (19kOLase), amino acid sequence SEQ ID NO: 2 (protein, listed as Oplophorus gracilirostris)
chain: B1 chain with I54A
Turning to B5, in experiment [1] (Table 3, 0.5 μg coelenterazine), the “Relative Luminescence Activity (Imax) Precipitate” value was 0.1 and the “Relative Luminescence Activity (Imax) Supernatant” value came to 1.0. Also, in experiment [1] (Table 8, coelenterazine), the “Relative Luminescence Activity (Imax) Precipitate” value is listed as 0.1 and the “Relative Luminescence Activity (Imax) Supernatant” value was 1.0. Also, in experiment [2], the “Relative Luminescence Activity CTZ Int.” value stood at 1.0 and the “Relative Luminescence Activity CTZ Imax” value is 1.0. In experiment [3], the “Relative Luminescence Activity 6h-CTZ Int.” value was 0.2 and the “Relative Luminescence Activity 6h-CTZ Imax” value was determined as 0.1.

B6: KAZ-A54I-Y138I: KAZ mutant with two amino acid substitutions A54I and Y138I, SEQ ID NO: 14 (protein)
chain: B1 chain with Y138I
B6: in experiment [1] (Table 8, coelenterazine), the “Relative Luminescence Activity (Imax) Precipitate” value worked out at 21 and the “Relative Luminescence Activity (Imax) Supernatant” value is 982. The “Luminescence activity in the supernatants, fold higher as compared to the wild KAZ” value in experiment [1] came to 982 fold. Moreover, in experiment [2], the “Relative Luminescence Activity CTZ Int.” value stood at 19.1, the “Relative Luminescence Activity CTZ Imax” value was 23.1 and the “Substrate specificity” value was “high substrate specificity for coelenterazine”. In experiment [3], the “Relative Luminescence Activity 6h-CTZ Int.” value is 6.1 and the “Relative Luminescence Activity 6h-CTZ Imax” value worked out at 5.8.

B7: KAZ-V44I-Y138I: KAZ mutant with two amino acid substitutions V44I and Y138I, SEQ ID NO: 12 (protein)
chain: B1 chain with V44I, I54A, Y138I
As for B7, in experiment [1] (Table 8, coelenterazine), the “Relative Luminescence Activity (Imax) Precipitate” value is reported as 5.0 and the “Relative Luminescence Activity (Imax) Supernatant” value amounted to 71. The “Luminescence activity in the supernatants, fold higher as compared to the wild KAZ” value in experiment [1] is given as 71 fold. For the same molecule, in experiment [2], the “Relative Luminescence Activity CTZ Int.” value amounted to 9.9, the “Relative Luminescence Activity CTZ Imax” value was found to be 17.1 and the “Substrate specificity” value was “high substrate specificity for coelenterazine”. Moreover, in experiment [3], the “Relative Luminescence Activity 6h-CTZ Int.” value is 5.3 and the “Relative Luminescence Activity 6h-CTZ Imax” value is recorded as 4.3.

B8: KAZ-V44I: KAZ with single amino acid substitution V44I, SEQ ID NO: 4 (protein)
chain: B1 chain with V44I, I54A
B8: in experiment [1] (Table 3, 0.5 μg coelenterazine), the “Relative Luminescence Activity (Imax) Precipitate” value is 0.6 and the “Relative Luminescence Activity (Imax) Supernatant” value amounted to 6.5. Further, in experiment [1] (Table 8, coelenterazine), the “Relative Luminescence Activity (Imax) Precipitate” value is given as 0.6 and the “Relative Luminescence Activity (Imax) Supernatant” value amounted to 6.5. Besides, in experiment [2], the “Relative Luminescence Activity CTZ Int.” value was 5.9 and the “Relative Luminescence Activity CTZ Imax” value stood at 7.2. Besides, in experiment [3], the “Relative Luminescence Activity 6h-CTZ Int.” value stood at 0.6 and the “Relative Luminescence Activity 6h-CTZ Imax” value amounted to 0.4.

For the origin of these results see patent publication US10907134B2, “Mutated genes for the catalytic protein of oplophorus luciferase and use thereof” (JNC CORPORATION, priority 2013, dated 2021).
